{"source": "the NTF2 design screens of Basanta et al. (2020)"}
{"test": "protease stability score; higher = more stable; yeast display proteolysis, trypsin and chymotrypsin;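 also: relative to predicted unfolded state with 0 unfolded-like and 1 meaning tenfold more protease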"}
{"sequence": "DDTDRRSRILTELSLNLFRTGDWKLFEEMADPHARMSMDVDGKELRHHGRESVSHVWHRQLFELGVDHYDLHDVKVIDGVMHVFSEVKVGDKRLELLIVAEKVNGKWHIREVHIKII", "protease stability score": 0.202}
{"sequence": "DEDDENIEKVLRTLFKLIHTGDWRTWLRFFDPHVKLEIGDKRLHGREVAEEFIRHRIEHLGVDRVEVRLHSFDKQGNKLHSDMRLYVGDKEFNVEMHMEKVNGKWIVRVFSID", "protease stability score": 1.38}
{"sequence": "SEHDEELERWARLILHLLYTGNEEELRKMMDPDVRLNVNGRELHGWKKAMELWRIIKEHLRIHHVDIHDIDVFDGRNHVDIRINTNINGQEYIYKTEIIIVIIDGRMRSHEVRVK", "protease stability score": 1.74}
{"sequence": "SEEEELHRLLRERYIKNALTGNEKHLRRLADPNTRNNVNGRTHHGWDFYTDMISRLGADHVQIHDRHVDIQGEYIDVHLEVELNINGKHHRLDVRIIILKVDGKWTLHSFEML", "protease stability score": 0.553}
{"sequence": "DEDRIISEEAAKLFLHLLLTGDEKVFDEYLDPRTRLIIGDKEFIGRETLRKTMQEFRHKAGIDHMHIRDSRIELIDGRVVQHLEIHVRFNGKSEDRVIHVFIEKINGRWHIHFVEVKID", "protease stability score": 1.53}
{"sequence": "SEVEDFLHEFVRKLVRVLDTGDWEVLEKMFDPNTRFHIGDKELHGREEFVKFTEELGIRVRWELKDIRFQGDKAETIGTERVDFNGKEITTDVTFEVLLFNGVIKEIRIRRR", "protease stability score": 1.36}
{"sequence": "DETDEYARNMMEIFVHLLATGNEEKMLEYMDPNTRHNFNGVVLHGRDVLREWWHRWLKEIRITRTRIDHVHTQGEYVHANTTVEGTIDGRKFELETRVHLHVVNGRIKESSIKLN", "protease stability score": 1.51}
{"sequence": "SEDEEALKKAIDLLFESLLTGDERELEKLADPNYRMEVNGKEIHGRELFSKTMIDILQRLGIDHIDFRIEHDETQGDKVIIEGKLIFKVGDKHIEIKSRLIVLKVDGQWILRHSRMH", "protease stability score": 2.05}
{"sequence": "SETEKLLHEILEKLIRNEATGNFENIEQLLDPHYRVEIGEFEMHGMEEIIRWLNWVKREMRIKRRHIRTMTWQGDKALVDTELHIQVNGQHIRLDEYIVVLIINGRVKEVRVEHR", "protease stability score": 0.943}
{"sequence": "DDSAKWTEIALKIKSHDSDTGNEEKIRRLLDPNVRIEINGQEIHGRDKISKWLSEIRIQIEHVDTERYELQGNKAIVDGRMHIKVSYGDKEMHFDIKFEIEVHKVDGQWLIHSERII", "protease stability score": 0.754}
{"sequence": "SEEHEEERHHVEDLLRALWTGNEEHLKKLADPHMRTILIVNGKQLDLHGWRDMWRALREIRERLGIDHEHIHRSRIYNGRLEIDSRVEVDGVHHIVKIRVDVIDGKNHEFKIEFR", "protease stability score": 1.63}
{"sequence": "SEEEEHSLKIARQWVENVLTGDEHLLRKLADPDTRIIVDGRHYHGWRQEHKVLEEIRIHDMFEKDVEVQGDKIYMNGTVDGEINGKRTRSDVDLIILVVDGRIKQVEINVH", "protease stability score": 1.12}
{"sequence": "DEDEREVAEVLRRWLHDFLTGDEKEFHRLVDPHVKYREHYNGQQIHVHGRENLFEFIRRRNEEMRMEILIRDWKVQGDYAESEGEVIFDINGRIHSVDLRVEIIVVNGRVSKVHISVN", "protease stability score": 0.847}
{"sequence": "DEDHKHAERFVEEFITLILTGNEELLKRLADPNVKIDFDGVEIIGREILNSHTKKQINRIDHIRIHIRHIHVQGDKAIIDLEVRIIVDGKEDRNETHLFLTKVNGRWILTSWKVG", "protease stability score": 1.6}
{"sequence": "DEHERDAHRFIEHLWRILATGDEEELRKLFDPDAKHHDENELYHGREKVTKFISHRFKHLGIDHVEFRLTDLEVQGDKVISRILVIQRVNGVEYRIDMLFIFHKINGRWLIKSLEVH", "protease stability score": 1.36}
{"sequence": "EEWRDHVHHLLELMLHLWRTGDEEIFHRLLDPDTLVRVNGVEFHGRDAMHHVLHRLIEELGINHYRESDFDIQGNKAFHHGELRVNGKTVLEEQRYVIFNGKIKEIRITLH", "protease stability score": 0.271}
{"sequence": "DHHEELVERIAREWIHAWKTGDEKRLRELMDPHVRMNFNGQELHGRELVTNFLHEFLERFDHQEHHIKRFTVVNGVMHIDGELDLNFDGRRYRHRVHIHIFVFDGRVKHVEIEIR", "protease stability score": 2.29}
{"sequence": "SEDERDSKIAAEINRHWLETGDEEHFKKNVDPHTKVRIGDKEYHGRHFLLHILEHHVKHLWFEVRIEDLRLIGDFVHIDMVLFIRVDGRQETFRIRIIAQKIDGRWVVKHINIE", "protease stability score": 0.097}
{"sequence": "DEEHKEVREHIETSIQALRTGDWELLSKRMDPHVRVIVGDKHLHGREEAHKMLEEWFKRMGIDHFHIKSIEIQGDKTDVEGHMYFNGVSRDTRLYEVWVNGRLKSLTIEMR", "protease stability score": 0.626}
{"sequence": "NEEQKEAEDFMRMVSRIHETGDEDSLRRYFDPNVRIKDENHHLHGWKELIHWTHRVDHIEVRVKNVDIQGDKIHLDGEEIVRIDGVEVRRRVLFILTKVNGRWHIQEIRIE", "protease stability score": 0.72}
{"sequence": "DETKEHVHNWMELVVHWYETGDEEEILKNADPNVRTIFNGVDYHGWEHLEEILKKIRHFFKNARVEIERIEIQGDKLILDVNVEINGQRDTLHIHVKVVDGVMKNLEIRHG", "protease stability score": 1.59}
{"sequence": "REEDEIAENLFRLWIKSFLTGDFNTLRKLMDPHVRIHINGQEIHGREDFVRLLWEEFRRLGAKFHIEIKHLDVQGDKVFSEGTLRIEQGNKKDSKSVLIELIVVDGVITEIRMDVR", "protease stability score": 2.25}
{"sequence": "DEDEELVRHAYEDWLHTVRTGDEHTLNKLFDPHVRMHYDGVESHGWRIAHHFHRRFKNMQVRIDDEHIEVYGEFARVESKITLDVGEYKIDLTLIVIMIKVNGRWKIHSVRIEKR", "protease stability score": 1.17}
{"sequence": "SEEHKWVHMAFEVLLKVLKTGDEENVNRLFDPHVRVEWDGREIHGMETFTRELSHLRFKLDDFKLHHISVAEGRAIIHGRFHGRIEYGDKEHEFDSHVILFVLKVDGRWLIKKIEFR", "protease stability score": 1.83}
{"sequence": "TEEEEHLHTLASKDLKAFMTGDWETHKKLADPHVRFELVVGEWRLILHGRERFIEFLIEVLEKMGVDHFHLQHVEVIGNFVRLNIKIEVGDKTHDTRIDLEYINGVIHDVRVEFK", "protease stability score": 2.02}
{"sequence": "TEEEKFAEEMLRRFIENLITGDWRELKKLFDPDTKIVFNGREHHGMEWHIEFLREIRITHIEVRDMTLINGVAHANGHEIIIIGDKTLEMDTRINIVTINGRIHSIEIKQR", "protease stability score": 2.54}
{"sequence": "DREHREREELLNETNKAIATGDEETLRRLFDPNVQIEQGEYHHHGWEWVKKLMEEMRIEVEHVHDRRVDMFENHVRVDTHVHLRFIIGDKIFHVNLRQEIVMHKVNGVWIFKSFKYH", "protease stability score": 1.4}
{"sequence": "DDMHEVAKQLMEELVRNWITGNEDNVRHLLDPDVRIIIGDFIFHGRESLELLLHFYNKHIRWTDYKVHDFRIQGDYLHMDTRLIGIIDGRHVILETQMVAVKINGRWRVKSLEVR", "protease stability score": 2.11}
{"sequence": "DEEEKLVRYLRELMKKAWLTGDEDYIRKLMDPDTWFIYGDKHWHGMEEVTKAFEYLLHHLRIEHSIDRHVSIIGNKVHIDGEVDVTIGEKRDRRRQEIILIIVDGRIKTIEFHER", "protease stability score": 0.942}
{"sequence": "DEDTHVMEHALREWSHIFHTGDEDRLLELMDPRTRATVNGVDLHGMEEITRLETEIIRSHGMKFRTFLLEDFKTIDGKIHVHSRLNVDINGKERELRVRIIAKKVNGRWVVTKVEVG", "protease stability score": 0.952}
{"sequence": "DQEHEDARNVLHLLIRSWRTGDEHTSEHLMDPDVKIIYNGRVHVGREDAHRFVEEARVHHIVLHDSRVQGDYIRLDIRVEGEINGRRDRTEVDMVVLKINGRWMIQSIKFK", "protease stability score": 1.38}
{"sequence": "EEEDREFEERWKEFEHAMRTGDEDSLEENLDPNVRFLFDGQEIVGRELTSKFIAEWLRSLGVEKVTIFMRRFHVIGDKVTVDGAFEVNGVHIRTIVYSKKVNGRWFNKSEEFR", "protease stability score": 0.733}
{"sequence": "HEREEWSENAFRMILRSLMTGDERTLYELADPNVRLDVNGQDYHGREDFLHFYTHFLFRADHVELILRRERPVGDKLELDGELVSRVGDKTHHVEVRIVLWKVNGRWLIHSVYII", "protease stability score": 1.81}
{"sequence": "DEDKKFIDEYLKLLEDSIETGDWRNHNELLDPNALVLVNGVELHGRELAVTHTEKFLKHMGVKHYRLHEVDIQGEKVHIHSKAHVDGRTFDLEFISHKIDGRWLMSEVRIREN", "protease stability score": 1.24}
{"sequence": "DEDTEQLEWILKLHLEISRTGDEHSEHHMVDPNTRIEVGDKELHGREEIVKWFAHIRIDHIDIKRYHIFNGRVRIDGRVEGNVDGRETTMRVIFLSDKFNGRWRHRSVIVR", "protease stability score": 1.53}
{"sequence": "DEELNEWEEWMRRAMKADETGDEDTVTHMLDPNVKFDIDGVELVGREEFIRFFRELRISFHHFKFDHIRDINGRVRVEGTVHLEIIIGEFRHRDDRRTERIELKINGRWYIHSMKIG", "protease stability score": 1.18}
